This data set in a line: soluble on expression in E. coli; label from the status in PepcDB or PDB records.
As to “GYKKIPKKKLKDLMVELYVADGHFANIYDPKLTDSVREAVYTNLFAKYGTTRMDYDSTLMWYGRHDLEEYIAICQSVRDELEKQRIDLDKQITLEREKKGMDMLDGSFYELDSINMLAGDSTCFYRPEMPFLNRSFIITPGTAYKEGTRLEFVTRLRGLQLRPDATMEMFLQLVCTDNTVLTVSRPVNPGINMLTTSVPDSASVSRVYGYLRGFPDSAGIMSLSPFVIDSFSLRKF”, the “soluble on expression in E. coli” value is on record as “not soluble”. The result for “MKVLAIDTSNYVMGVSLIEEGNVIGEIITNLTKNHSVRLMPAVEQLLKECGVKPKELTKIVVAAGPGSYTGVRIGVTAAKTLAWSLQIPIVGVSSLEVVAANGANFNGLISPLFDGRRGQIYTGLYTYEGEDLTSIEEDRIILIVDWLQMLKDKGKPVLFIGNDVKLHKETIIEHLGDQAVFAPVTKNNPRPSELAFLGLQKEEQDVHSFVPSYLRLAEAETKWLESQNK” reads “not soluble”. The result for “MAHHHHHHMSIYCRLASPPVFLRALHTVSVSRDGWATVVFTDSHVVLHVEGTDENMTATCTLPKNLFAEYAVVETRFALHIPTLIDALLMLGPSVATASTRAVLAYPTDDAKLLVELTPTDRVAGGGSCGGFSGGGPMTQSDLGV” reads “soluble”.

On to “MNTVCTHCQAINRIPDDRLQDAAKCGRCGHELFDGEVINATGETLDKLLKDDLPVVIDFWAPWCGPCRNFAPIFEDVAEERSGKVRFVKVNTEAERELSARFGIRSIPTIMIFKHGQVVDMLNGAVPKAPFDSWLNEAL”, for which the “soluble on expression in E. coli” value is “not soluble”.

Turning to “MATAETSVLIGYLSDYGYSDRLSQAIGRGLVKTGVAVEMVDLRAVDPQELIEAVSSARGIVLGTPPSQPSEAVATALSTIFAAAHNKQAIGLFDSYGGDDEPIDALLAQFRNLGLHTAFPPIRVKDQPTEAIYQQCEESGTDLGQWLTRADAIQTMKSLEHHHHHH”, the “soluble on expression in E. coli” value was “not soluble”.

“MAKMTTLKMKERLEKELQAPNRQFSYNRDNDALTVVQSGKKVTLAIPQIIANYENDGDAAVEKIVYYVEEGFRAAAGNVELENNKANVYPVVRATSFPGETKAGEVLLTDDHTAETKIFYAVDLGKSYRFIEESMLKKAQLTHEEIREAAFNNLANLEIPLKKDSVNGNDFYFVRTNDGYDASRLLNEAFLREMREKLTGEMVLAVPHQDVLIIGDIQDNTGYDVLAHMTMDFFADGLVPITSLPFVYNNGKLEPIFIMAKNRLKE”: the “soluble on expression in E. coli” value is on record as “not soluble”. The result for “MSLKAFLHHLQNEAKLIISLTYCVDGEFALNEIARATLQQYGIVQLSSATNSDSETEAATSKAVKTAYDKAVEAKTTADGKVGLNGNESINGEKTFENRIVAKRNIRISDSPHYASRGDYLNIGANNGDCWFEYKLSNQEIGTLRMHANGDLTYKRQKIYLKMDCWQAIHKRKLKVFTAKRKKREGHHHHHH” reads “not soluble”; that for “MRSPDSDRPVHRMRALREAVSDADSHSRRGGRMIAREWQFALPEKKHKKKYFGNLKAEVIDAGLCCHCAACASICPVNGITAGDAPIDFPNWVKECVDCGACIKVCPRWEYTPKNGLGEYIEVVAARSKRFVGQDGAMVTEFTASALEMGIIERAIFVARDSNWRTRVVTIKTPEQLYDRKITGTKYSYADVLPALKEAVLKSEAVGFVGTPCMVSAVRKMQQAFKKFERVKLAIGLFCTENFYHHDLYKFLLEKANADLRNAVKTDIKKGKFIVEMKDGSKVRIPVKDFEEIIPSGCKVCQDFAAVESDVSVGSVGSPNRFSTVMVRTEVAKQILDYIREKDYAEFGEAKLDIVQKLCDHKMKIHPWPPKKKEEKSEELEHHHHHH”, “soluble”. For the sequence “AEAAAAQAPAAGPGQMSFTFASPTQVFFNSANVRQVDVPTQTGAFGILAAHVPTLQVLRPGLVVVHAEDGTTSKYFVSSGSVTVNADSSVQLLAEEAVTLDMLDLGAAKANLEKAQSELLGAADEATRAEIQIRIEANEALVKALE”, the “soluble on expression in E. coli” value is “soluble”. The result for “MVDKNSLRKLMLLKRAELNDLEKSHLDQKINQKLMAFLITRPTIKNLALYIPIKNEVAFLDNFLDFLKLNKITSCFPSIVDQFNMKFIDQNNNEINPNDIDCFFIPLLAFNKANHRIGFGKGYYDRYLSLTSKKQLKIGIAYDFQYAEFTNDPWDYQLDLIICNGMAGDPLEHHHHHH” reads “soluble”. “GMTDTNLVEMRAIERMMFDYSYHLDMNHPEELAALFVEDCEVSYAPNFGATGRDAYKKTLEGIGTFFRGTSHHNSNICIDFVSETEANVRSVVLAIHRYTKERPDGILYGQYFDTVVKVDGQWKFKRRELRTTMTTDYHVRAANPIGRAE”: the “soluble on expression in E. coli” value is listed as “soluble”.
